Test: soluble on expression in E. coli; label from the status in PepcDB or PDB records

| Sequence | soluble on expression in E. coli |
| --- | --- |
| MGSDKIHHHHHHLRFIIVSGPPSAGKTAVMIHAIRHLLKDGIKVAACKIDCLKTSDDKNYRALGIPVAVGLSEYLCPDHFFVANLEEIYAWGSYYGTEVLILETAGLCHRCAPAIQGCLSICVIDNLSGIDTPQKVGPMLSTADVVLISKGDVVSQAEREVFRQRVEMVNPDAAVLSVNGLNGQGSLKLKKIIMESASVKRIEGQELRCSMPAAICSYCTGETMIGSSYQMGNVKKLDFGKF | not soluble |
| MPVLVFGAVNVHDGDTVAVVHQEESANATAFLDFLRLLKERHPNRMIALVLDNARIHHARMVKDFLREEGQCFHFLYLPPYSPQLNPIERLWKWLKDTVITNAFHKDRHEILQAVQRLIHYIPKRPEDVLRRLECAV | not soluble |
| GPLGSSWLFLEVIAGPAIGLQHAVNSTSSSKLPVKLGRVSPSDLALKDSEVSGKHAQITWNSTKFKWELVDMGSLNGTLVNSHSISHPDLGSRKWGNPVELASDDIITLGTTTKVYVRISSQNEFQIPFKIGVASDPMA | soluble |
| MAAKFHLKKAKDGQFHFNLHAANGEIILTSELYKAKDSALGGIESVRKNSQRDGAFEVKPANNGKFHFVLKATNGQVVGQSQLYASQANAEAGVQSVKRATPEAGLSDES | not soluble |
| MGSDKIHHHHHHMLSNRELLQKLLKGIETGDPAAAAVVNEEKYIQHYPQTHEGSEGLAVLFARLAKTNPRVRFVRVFEDGDFAFAHNEYDFASLRVAFEVFRFENGRAVEHWDNIQPMLGPNPSGRGMLDGVTQITDLERTEANRALVRDFAQRVLVGRQLDFLGSCVDDGLIQHDPEIADGRAAYRAALEAVTNGQPRLHYTRLHRVLAEGNFVLCMCEGERDGVHSSFYDLFRVENDTIIEHWNTIEAIAPRNEWKNENGKF | not soluble |
| MGSDKIHHHHHHSDEKYPMPTSIDQNSLSAEAKAGAIKLKWTVPADSNYYYVKVTYTLPEDGKKCMRLASVNSDTMLVDNLLHRYGDINFTLQPCNRAGEASQSCSIMAQALPALKQIKTDRNPITLSAKQLYTDDQESSEGPIANLVDGRNDTYFHMSWSSPTPFPHYIVVDLGEENALSTFLFSYVCRDNNNKDNPKEMDILGSNTFDGKNYDESQTTLLASLSNLPNTKAASYESDIIKAGASYRYLWFKVKSSTSGSNWIALAELGLSKVIVKTYDPETGETTIE | not soluble |
| GMNTNLASFIVGLIIDENDRFYFVQKDGQTYALAKEEGQHTVGDTVKGFAYTDMKQKLRLTTLEVTATQDQFGWGRVTEVRKDLGVFVDTGLPDKEIVVSLDILPELKELWPKKGDQLYIRLEVDKKDRIWGLLAYQEDFQRLARPAYNNMQNQNWPAIVYRLKLSGTFVYLPENNMLGFIHPSERYAEPRLGQVLDARVIGFREVDRTLNLSLKPRSFEMLENDAQMILTYLESNGGFMTLNDKSSPDDIKATFGISKGQFKKALGGLMKAGKIKQDQFGTELI | soluble |
| GPLGSPEFGYWITCCPTCDVDINTWVPFYSTELNKPAMIYCSHGDGHWVHAQCMDLEERTLIHLSEGSNKYYCNEHVQIARA | soluble |
| MARSLVFIAIALIAVVSAGPGDKDQPKPDHKKGPGGFHHFFPKFFGNVSEEGKKEIGALFKNQDLTLAEVDTKIAALAEKYGVAAAYKEHKAKEATNEAEAKKKTASVISNLSAVSAKLTAIHDNKSLTRKAQREAIAALRKEHEAEVAALDFIGKRSHGFGKHHGRHGKGNGKFFGKRGGNKMERKTAAQ | not soluble |
| MGSDKIHHHHHHMILEALQYAATRAVTPKEFRPHVRYSVNLWARANRCAKAWAEHENNSRQFVLQSAKKLKQRRTAVVLGSGLLRDVPHDALVAMFDTVVMVDLVHLASVQAKLRLNAKKNVRIANRDLSGFDDLLAGRPAEPLDFLRRVPYLDFVVSANLLSQIGTGAQHRLEREKIANVPGDLLPKLIQTHLDALAGLPCKVCLVTDTAFDVIGKDGSVQQHEDLLHGIEIASPAAAWDWPLAPFGEESRDYRIVHHVIAREMT | not soluble |
| MMIFRFVTTLAASLPLLTFAAPISFSHAKNEAVKIYRDHPVSFYCGCEIRWQGKKGIPDLESCGYQVRKQENRASRIEWEHVVPAWQFGHQLQCWQQGGRKNCTRTSPEFNQMEADLHNLTPAIGEVNGNRSNFSFSQWNGIDGVTYGQCEMQVNFKERTAMPPERARGAIARTYLYMSEQYGLRLSKAQNQLMQAWNNQYPVSEWECVRDQKIEKVQGNSNRFVREQCPN | soluble |
| QLSAGCGELSPQIGGGWLWSSMHRSGRYGTQQQRAGSKTAGPPCQWSRMASEGTNIPSPVVRQIDKQFLICSICLERYKNPKVLPCLHTFCERCLQNYIPAHSLTLSCPVCRQTSILPEKGVAALQNNFFITNLMDVLQRTPGSNAEESSILETVTAVAAGKPLSCPNHDGNVMEFYCQSCETAMCRECTEGEHAEHPTVPLKDVVEQHKASLQVQLDAVNKRLPEIDSALQFISEIIHQLTNQKASIVDDIHSTFDELQKTLNVRKSVLLMELEVNYGLKHKVLQSQLDTLLQGQESIKSCSNFTAQALNHGTETEVLLVKKQMSEKLNELADQDFPLHPRENDQLDFIVETEGLKKSIHNLGTILTTNAVASETVATGEGLRQTIIGQPMSVTITTKDKDGELCKTGNAYLTAELSTPDGSVADGEILDNKNGTYEFLYTVQKEGDFTLSLRLYDQHIRGSPFKLKVIRSADVSPTTEGVKRRVKSPGSGHVKQKAVKRPASMYSTGKRKENPIEDDLIFRVGTKGRNKGEFTNLQGVAASTNGKILIADSNNQCVQIFSNDGQFKSRFGIRGRSPGQLQRPTGVAVHPSGDIIIADYDNKWVSIFSSDGKFKTKIGSGKLMGPKGVSVDRNGHIIVVDNKACCVFIFQPNGKIVTRFGSRGNGDRQFAGPHFAAVNSNNEIIITDFHNHSVKVFNQEGEFMLKFGSNGEGNGQFNAPTGVAVDSNGNIIVADWGNSRIQVFDGSGSFLSYINTSADPLYGPQGLALTSDGHVVVADSGNHCFKVYRYLQ | soluble |
| MSLGQGSILTKANTINNMEYVTEVFGAIPTEEQVSYQKEELTAFIHFGVNTFTGREWGDGTENPEIFNPTNLDADQWVKTLAEAGFGRVILTAKHHDGFCLWDSAYTKHDVASSPWKNGKGDVVKEVLEACAKYNIKFGVYLSPWDQNSEHYGDGNGGDYNEFYMNQLRELLTNYGPIAEVWMDGAKGSNVKQEYNFEEWFALIKKLQPECLIFSPQGPDIRWIGNEKGYAGEPCWSTIDIEKMKERENPTYLNNGEEGGPNWIVGESDVSIRPGWFYHESQDNEVKSLEKMMDIYFKSIGRNSVLLLNVPPNKEGKLHENDVNRLKKFGETIKELFNDDLALNKEVIVDGFANNDETYGANKIVDGDYDTYWAPDNSSKTGTIEIDLGGSKEFDVISLQEYIPLGQRVSSFNVEVLQGENWNKVYEGKTIGYKRLVRIAPTKGEKIRINITGSLEVPLINNVGVYKQPISIEEGHHHHHH | soluble |
| MSLTPTELNLKAKALLETHFDDIVLSGEISKITLHGSGHWYFDLKDERSSIACAMFKGANLKVGFKPAVGDFLELCGSVSLYPESGRYQFIATSMKKAGFGDLEAQFLALKERLQKEGLFDPRFKKSLPKFPKKVGIITSKTSAALQDMLKLIHQKEYFLAKIYIFDALTQGNNAPFSLIQALKKADDMDLDVLIIARGGGSREDLFCFNDENLAREIFKAKTPIISAIGHEIDYVISDFVADFRAPTPSAAIDTLFYSKLDIEQSLDLMEEKLMQLWNYKIQNYENLLLNLSKFFKFNSLPKIIDEKIKQSHNIEKQLNHLLANQMRYNELKLDKLQNAYLQHENFFNKSKKFICIRKNGKIANLEDLKSDDIVILSSQTSQKEAKILEGHHHHHH | not soluble |
| MGSDKIHHHHHHMKNRFLIICTVLFLSSCLAYGQEQASVTNDFSENKQGCIQHPWQGKKVGYIGDSITDPNCYGDNIKKYWDFLKEWLGITPFVYGISGRQWDDVPRQAEKLKKEHGGEVDAILVFMGTNDYNSSVPIGEWFTEQEEQVLSAHGEMKKMVTRKKRTPVMTQDTYRGRINIGITQLKKLFPDKQIVLLTPLHRSLANFGDKNVQPDESYQNGCGEYIDAYVQAIKEAGNIWGIPVIDFNAVTGMNPMVEEQLIYFYDAGYDRLHPDTKGQERMARTLMYQLLALPVAF | not soluble |
| MGSSHHHHHHSSGLVPRGSHMASMAKMRAVDAAMYVLEKEGITTAFGVPGAAINPFYSAMRKHGGIRHILARHVEGASHMAEGYTRATAGNIGVCLGTSGPAGTDMITALYSASADSIPILCITGQAPRARLHKEDFQAVDIEAIAKPVSKMAVTVREAALVPRVLQQAFHLMRSGRPGPVLVDLPFDVQVAEIEFDPDMYEPLPVYKPAASRMQIEKAVEMLIQAERPVIVAGGGVINADAAALLQQFAELTSVPVIPTLMGWGCIPDDHELMAGMVGLQTAHRYGNATLLASDMVFGIGNRFANRHTGSVEKYTEGRKIVHIDIEPTQIGRVLCPDLGIVSDAKAALTLLVEVAQEMQKAGRLPCRKEWVADCQQRKRTLLRKTHFDNVPVKPQRVYEEMNKAFGRDVCYVTTIGLSQIAAAQMLHVFKDRHWINCGQAGPLGWTIPAALGVCAADPKRNVVAISGDFDFQFLIEELAVGAQFNIPYIHVLVNNAYLGLIRQSQRAFDMDYCVQLAFENINSSEVNGYGVDHVKVAEGLGCKAIRVFKPEDIAPAFEQAKALMAQYRVPVVVEVILERVTNISMGSELDNVMEFEDIADNAADAPTETCFMHYE | soluble |
| AEMEVQIVRNDPPLRYDTNLPVDLLHMVYAGRGATGSSGVVFGTWYRTIQDRTITDFPLTTRSADFRDGRMSKTFMTALVLSLQACGRLYVGQRHYSAFECAVLCLYLLYRNTHGAADDSDRAPVTFGDLLGRLPRYLACLAAVIGTEGGRPQYRYRDDKLPKTQFAAGGGRYEHGALASHIVIATLMHHGVLPAAPGDVPRDASTHVNPDGVAHHDDINRAAAAFLSRGHNLFLWEDQTLLRATANTITALGVIQRLLANGNVYADRLNNRLQLGMLIPGAVPSEAIARGASGSDSGAIKSGDNNLEALCANYVLPLYRADPAVELTQLFPGLAALCLDAQAGRPVGSTRRVVDMSSGARQAALVRLTALELINRTRTNPTPVGEVIHAHDALAIQYEQGLGLLAQQARIGLGSNTKRFSAFNVSSDYDMLYFLCLGFIPQYLSAV | soluble |
| MADYKDIVLIQSTSSLSASLGDRVTISCRASQDIRNYLNWYQQKPDGTVKLLIYYTSRLLPGVPSRFSGSGSGTDYSLTISNLEQEDIGTYFCQQGNTLPWTFGGGTKLEIRRGGGGSGGGGSGGGGSGGGGSEVQLQQSGPELVKPGASVKISCKDSGYAFSSSWMNWVKQRPGQGPEWIGRIYPGDGDTNYNGKFKGKATLTADKSSSTAYMQLSSLTSVDSAVYFCARSGLLRYAMDYWGQGTSVTVSS | soluble |
| MFDYSAHPELLKGRVILVTGAARGIGAAAARAYAAHGASVVLLGRTEASLAEVSDQIKSAGQPQPLIIALNLENATAQQYRELAARVEHEFGRLDGLLHNASIIGPRTPLEQLPDEDFMQVMHVNVNATFMLTRALLPLLKRSEDASIAFTSSSVGRKGRANWGAYGVSKFATEGLMQTLADELEGVTAVRANSINPGATRTGMRAQAYPDENPLNNPAPEDIMPVYLYLMGPDSTGINGQALNAQ | soluble |
